Residue numbers refer to the chain shown, from its start. Names may count otherwise.
B1: GLS3000 K50Q one-arm antibody (antibody, human IgG1, kappa, L234A L235A, N297A, name in Kabat numbering)
light: DIVMTQSPLSLPVTPGEPASISCRSSQSLVHSNRNTYLHWYQQKPGQAPRLLIYQVSNRFSGVPDRFSGSGSGTDFTLKISRVEAEDVGVYYCGQGTQVPYTFGQGTKLEIKRTVAAPSVFIFPPSDEQLKSGTASVVCLLNNFYPREAKVQWKVDNALQSGNSQESVTEQDSKDSTYSLSSTLTLSKADYEKHKVYACEVTHQGLSSPVTKSFNRGEC
heavy: QVQLVESGGGVVQPGRSLRLSCAASGFTFSNAWMHWVRQAPGKGLEWVAQIKAKSNNYATYYAESVKGRFTISRDDSKNSLYLQMNSLKTEDTAVYYCRYVHYGAYYGVDAWGQGTTVTVSSASTKGPSVFPLAPSSKSTSGGTAALGCLVKDYFPEPVTVSWNSGALTSGVHTFPAVLQSSGLYSLSSVVTVPSSSLGTQTYICNVNHKPSNTKVDKKVEPKSCDKTHTCPPCPAPEAAGGPSVFLFPPKPKDTLMISRTPEVTCVVVDVSHEDPEVKFNWYVDGVEVHNAKTKPREEQYASTYRVVSVLTVLHQDWLNGKEYKCKVSNKALPAPIEKTISKAKGQPREPQVYTLPPSRCELTKNQVSLSCAVKGFYPSDIAVEWESNGQPENNYKTTPPVLDSDGSFFLVSKLTVDKSRWQQGNVFSCSVMHEALHNHYTQKSLSLSPDYKDDDDK
chain: EPKSSDKTHTCPPCPAPELLGGPSVFLFPPKPKDTLMISRTPEVTCVVVDVSHEDPEVKFNWYVDGVEVHNAKTKPREEQYNSTYRVVSVLTVLHQDWLNGKEYKCKVSNKALPAPIEKTISKAKGQPREPQVCTLPPSRDELTKNQVSLWCLVKGFYPSDIAVEWESNGQPENNYKTTPPVLDSDGSFFLYSKLTVDKSRWQQGNVFSCSVMHEALHNRYTQKSLSLSP
B2: GLS3000 K50T one-arm antibody (antibody, human IgG1, kappa, L234A L235A, N297A, name in Kabat numbering)
light: B1 light with Q55T
heavy: B1 heavy
chain: B1 chain
B3: GLS3000 N53E one-arm antibody (antibody, human IgG1, kappa, L234A L235A, N297A, name in Kabat numbering)
light: B1 light with Q55K, N58E
heavy: B1 heavy
chain: B1 chain
B4: GLS3000 K50Y one-arm antibody (antibody, human IgG1, kappa, L234A L235A, N297A, name in Kabat numbering)
light: B1 light with Q55Y
heavy: B1 heavy
chain: B1 chain
B5: GLS3000 N53F one-arm antibody (antibody, human IgG1, kappa, L234A L235A, N297A, name in Kabat numbering)
light: B1 light with Q55K, N58F
heavy: B1 heavy
chain: B1 chain
B6: GLS3000 N53V one-arm antibody (antibody, human IgG1, kappa, L234A L235A, N297A, name in Kabat numbering)
light: B1 light with Q55K, N58V
heavy: B1 heavy
chain: B1 chain
B7: GLS3000 K50S one-arm antibody (antibody, human IgG1, kappa, L234A L235A, N297A, name in Kabat numbering)
light: B1 light with Q55S
heavy: B1 heavy
chain: B1 chain
B8: GLS3000 N53R one-arm antibody (antibody, human IgG1, kappa, L234A L235A, N297A, name in Kabat numbering)
light: B1 light with Q55K, N58R
heavy: B1 heavy
chain: B1 chain
B9: GLS3000 L33E one-arm antibody (antibody, human IgG1, kappa, L234A L235A, N297A, name in Kabat numbering)
light: B1 light with L38E, Q55K
heavy: B1 heavy
chain: B1 chain
B10: GLS3000 N53S one-arm antibody (antibody, human IgG1, kappa, L234A L235A, N297A, name in Kabat numbering)
light: B1 light with Q55K, N58S
heavy: B1 heavy
chain: B1 chain
B11: GLS3000 P95A one-arm antibody (antibody, human IgG1, kappa, L234A L235A, N297A, name in Kabat numbering)
light: B1 light with Q55K, P100A
heavy: B1 heavy
chain: B1 chain
B12: GLS3000 N53H one-arm antibody (antibody, human IgG1, kappa, L234A L235A, N297A, name in Kabat numbering)
light: B1 light with Q55K, N58H
heavy: B1 heavy
chain: B1 chain
B13: GLS3000 N53W one-arm antibody (antibody, human IgG1, kappa, L234A L235A, N297A, name in Kabat numbering)
light: B1 light with Q55K, N58W
heavy: B1 heavy
chain: B1 chain
B14: GLS3000 N53P one-arm antibody (antibody, human IgG1, kappa, L234A L235A, N297A, name in Kabat numbering)
light: B1 light with Q55K, N58P
heavy: B1 heavy
chain: B1 chain
B15: GLS3000 N53T one-arm antibody (antibody, human IgG1, kappa, L234A L235A, N297A, name in Kabat numbering)
light: B1 light with Q55K, N58T
heavy: B1 heavy
chain: B1 chain
B16: GLS3000 N53I one-arm antibody (antibody, human IgG1, kappa, L234A L235A, N297A, name in Kabat numbering)
light: B1 light with Q55K, N58I
heavy: B1 heavy
chain: B1 chain
B17: GLS3000 L33M one-arm antibody (antibody, human IgG1, kappa, L234A L235A, N297A, name in Kabat numbering)
light: B1 light with L38M, Q55K
heavy: B1 heavy
chain: B1 chain
B18: GLS3000 L33I one-arm antibody (antibody, human IgG1, kappa, L234A L235A, N297A, name in Kabat numbering)
light: B1 light with L38I, Q55K
heavy: B1 heavy
chain: B1 chain
B19: GLS3000 N53M one-arm antibody (antibody, human IgG1, kappa, L234A L235A, N297A, name in Kabat numbering)
light: B1 light with Q55K, N58M
heavy: B1 heavy
chain: B1 chain
B20: GLS3000 N53Q one-arm antibody (antibody, human IgG1, kappa, L234A L235A, N297A, name in Kabat numbering)
light: B1 light with Q55K, N58Q
heavy: B1 heavy
chain: B1 chain
B21: GLS3000 K107E one-arm antibody (antibody, human IgG1, kappa, L234A L235A, N297A, name in Kabat numbering)
light: B1 light with Q55K, K112E
heavy: B1 heavy
chain: B1 chain
B22: GLS3000 N53K one-arm antibody (antibody, human IgG1, kappa, L234A L235A, N297A, name in Kabat numbering)
light: B1 light with Q55K, N58K
heavy: B1 heavy
chain: B1 chain
B23: GLS3000 K50R one-arm antibody (antibody, human IgG1, kappa, L234A L235A, N297A, name in Kabat numbering)
light: B1 light with Q55R
heavy: B1 heavy
chain: B1 chain
B24: GLS3000 P95D one-arm antibody (antibody, human IgG1, kappa, L234A L235A, N297A, name in Kabat numbering)
light: B1 light with Q55K, P100D
heavy: B1 heavy
chain: B1 chain
B25: GLS3000 L33P one-arm antibody (antibody, human IgG1, kappa, L234A L235A, N297A, name in Kabat numbering)
light: B1 light with L38P, Q55K
heavy: B1 heavy
chain: B1 chain
B26: GLS3000 N53Y one-arm antibody (antibody, human IgG1, kappa, L234A L235A, N297A, name in Kabat numbering)
light: B1 light with Q55K, N58Y
heavy: B1 heavy
chain: B1 chain
B27: GLS3000 L33V one-arm antibody (antibody, human IgG1, kappa, L234A L235A, N297A, name in Kabat numbering)
light: B1 light with L38V, Q55K
heavy: B1 heavy
chain: B1 chain
B28: GLS3000 P95E one-arm antibody (antibody, human IgG1, kappa, L234A L235A, N297A, name in Kabat numbering)
light: B1 light with Q55K, P100E
heavy: B1 heavy
chain: B1 chain
B29: GLS3000 N53L one-arm antibody (antibody, human IgG1, kappa, L234A L235A, N297A, name in Kabat numbering)
light: B1 light with Q55K, N58L
heavy: B1 heavy
chain: B1 chain
B30: GLS3000 P95G one-arm antibody (antibody, human IgG1, kappa, L234A L235A, N297A, name in Kabat numbering)
light: B1 light with Q55K, P100G
heavy: B1 heavy
chain: B1 chain
B31: GLS3000 N53G one-arm antibody (antibody, human IgG1, kappa, L234A L235A, N297A, name in Kabat numbering)
light: B1 light with Q55K, N58G
heavy: B1 heavy
chain: B1 chain
B32: GLS3000 L33F one-arm antibody (antibody, human IgG1, kappa, L234A L235A, N297A, name in Kabat numbering)
light: B1 light with L38F, Q55K
heavy: B1 heavy
chain: B1 chain
B33: GLS3000 K74T one-arm antibody (antibody, human IgG1, kappa, L234A L235A, N297A, name in Kabat numbering)
light: B1 light with Q55K, K79T
heavy: B1 heavy
chain: B1 chain

biological target: T1, CD3 epsilon homodimer protein (UniProt P07766 23-126); assay: SPR Biacore T200, CD3e homodimer on chip, antibody analyte;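 further: CD3 epsilon homodimer amine-coupled on CM4 sensor chip, antibodies injected as analyte at 25 °C in HBS-EP+, ratio ≥0.8 taken as binding retained versus unaltered parent antibody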
T1 construct: Construct of the homodimer is not described; also called CD3 (CD3 epsilon)
T1 sequence (P07766 23-126): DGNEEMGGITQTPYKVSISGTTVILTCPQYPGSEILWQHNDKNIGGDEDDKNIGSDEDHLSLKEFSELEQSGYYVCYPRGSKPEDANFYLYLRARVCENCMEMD

| Binder | ratio of amounts bound (altered form/GLS3000) |
| --- | --- |
| B1 | 0.18 |
| B2 | 0.19 |
| B3 | 0.54 |
| B4 | 0.24 |
| B5 | 0.69 |
| B6 | 0.56 |
| B7 | 0.23 |
| B8 | 1.58 |
| B9 | 0.72 |
| B10 | 0.69 |
| B11 | 0.63 |
| B12 | 1.18 |
| B13 | 0.81 |
| B14 | 0.81 |
| B15 | 0.56 |
| B16 | 0.5 |
| B17 | 0.93 |

| Binder | ratio of amounts bound (altered form/GLS3000) |
| --- | --- |
| B18 | 0.83 |
| B19 | 0.62 |
| B20 | 0.77 |
| B21 | 0.94 |
| B22 | 1.08 |
| B23 | 0.5 |
| B24 | 0.24 |
| B25 | 0.3 |
| B26 | 0.67 |
| B27 | 1.05 |
| B28 | 0.39 |
| B29 | 0.56 |
| B30 | 0.37 |
| B31 | 0.76 |
| B32 | 0.78 |
| B33 | 0.84 |
